Test [1] deals with Glutathione S-transferase (GST)-tagged GII.4 Sydney 2012 P domain dimers. As to the kind of experiment: ELISA. For orientation: In an ELISA, binding on a coated surface is turned into a signal by an enzyme label.
Test [2] has as its target T1, GII.4 Houston 2002 (ABY27560.1) VLPs (UniProt P54635 1-539). As to the kind of experiment: VLP blockade.
Test [3] addresses T1, GII.4 Houston 2002 (ABY27560.1) VLPs. As to the kind of experiment: ELISA binding.
The target of test [4] is T2, GII.4 Sydney 2012 shell (S) domain (UniProt P54635 1-221).
T2 chain: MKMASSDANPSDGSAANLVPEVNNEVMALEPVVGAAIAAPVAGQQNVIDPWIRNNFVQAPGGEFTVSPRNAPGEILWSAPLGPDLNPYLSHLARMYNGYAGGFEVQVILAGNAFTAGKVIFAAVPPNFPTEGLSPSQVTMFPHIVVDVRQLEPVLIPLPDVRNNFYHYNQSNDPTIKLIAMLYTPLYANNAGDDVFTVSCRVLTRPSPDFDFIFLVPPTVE
As to the kind of experiment: ELISA.

Test [5] has as its target GII.13 (norovirus GII.13). Description: ELISA.
The target in test [6] is GII.3 (norovirus GII.3). As to the kind of experiment: ELISA.
Test [7] deals with GII.17 (norovirus GII.17). Description: ELISA.
For test [8], the target named is GI.3 (norovirus GI.3). Description: ELISA.

The EC50 is the concentration that produces a half-maximal response.

B1: NORO-317 (antibody, V domains shown)
VH: QVQLVESGGGLVKPGGSLRLSCVASGFTFSDYYISWVRQAPGKGLEWVSYISAINSYTNYADSVRGRFTVSRDNAKKSVFLQMNSLRVDDTAVYYCARDVGGSVRYSSNSNKKSYNYFDPWGQGTLVTVSS
VL: SYELTQPPSVSVSPGQTATITCSGDVLSKEFAYWYQQKPGQAPVLVIYKDNERPSGIPERFSGSTSGTTVTLTISGVLAEDEAHYYCQSVDTRGTYKVFGGGTKLTVL
Take B1: in test [1], the EC50 came out at 0.2 µg/mL.

B2: NORO-315B (antibody, V domains shown)
VH: QVQLVESGGGLVKPGGSLRLSCVASGFTFSDYYMTWFRQTPGRGLEWLSYISAIGGYTEYADSVKSRFIISRDNGKKSLYLQMNSLRAEDSGVYYCAREDCHGTSCYSGDWGQGTLVTVSS
VL: QSVLTQPPSVSGAPGQRVTISCTGSSSNIGAGYDVHWYQQLPGTAPKLLIYHNTNRPSGVPDRFSGSKSGTSAYLTITGLQAEDEADYYCQSYDRSLSKSRVFSGGTKLTVL
As to B2, the EC50 in test [1] stood at 0.3 µg/mL; in test [2], 2.2 µg/mL; in test [3] it was 0.5 µg/mL.

B3: NORO-278 (antibody, V domains shown)
VH: QVQLVESGGGVVQPGRSLRLSCAASGFTFSSYGMHWVRQAPGKGLEWVAVISYDGSNKYYADSVKGRFTISRDNSKNTLYLQMNSLRAEDTAVYYCAKVTIIAAADLLDYWGQGTLVTVSS
VL: QSVLTQPPSVSGAPGQRVTISCTGSSSNIGAGYDVHWYQQLPGTAPKLLIYGNSNRPSGVPDRFSGSKSGTSASLAITGLQAEDEADYYCQSYDSSLSGPVVFGGGTKLTVL
Take B3: the EC50 in test [1] was 68.5 µg/mL; in test [2] it was over 100 µg/mL; in test [3], 0.5 µg/mL.

B4: NORO-296A (antibody, V domains shown)
VH: QVQLVESGGGLVKPGGSLRLSCAASGFTFSEYYMSWVRQAPGKALEWVSYITSSFSSTSYADSVKGRFVISRDNAKNSLYLQMNSLRVEDTAVYYCARYGAEYGSRSFYFLDWGQGTLVTVSS
VL: QSVLTQPPSVSGAPEQRVTISCTGSSSNIGAGYDVHWYQVLPGIAPKLLIYDNNKRPSGVPDRFSGSKSGTSASLAITGLQAEDEADYYCQSYDSRLSSNVVFGGGTKLTVL
With B4, the EC50 in test [4] stood at 12.5 µg/mL; in test [2], 3.2 µg/mL; in test [3], 0.1 µg/mL.

B5: NORO-312A (antibody, V domains shown)
VH: QVQLVESGGALVKPGESLRLSCAASGFTFSDSYMSWIRQAPGKGLEWVAYISGIMSSTNYADSVKGRFTISRDNGKNSVYLQMNNLRAEDTAVYYCARDAQYCSGGRCYLVFDYWGQGTLVTVSS
VL: QSVLTQPPSVSGAPGQRVTISCTGSSSNIGAGYEVHWYQQLPGAAPKLIIYGNNNRPSGVPDRFSGSKSGTSASLAITGLQADDEADYYCQSYDNRLRVFGGGTKLTVL
As for B5, the EC50 in test [4] is 9.9 µg/mL.

B6: NORO-263 (antibody, V domains shown)
VH: QVQLVESGGGLVKPGGSLRLSCAASGFTLSDYYMSWIRQAPGKGLEWVAYISSSHTSTYYRDSVKGRFTISRDSAKKSLYLQMNSLRVEDTAIYYCARDWVGGRSAYSDHWGQGTLVTVSS
VL: SYELTQPPSVSVSPGQTARITCSGDALPRRPAFWYQQKSGQAPVLVMYDDSKRPSGIPERFSGSSSGTVATLTISGAQVEDEADYHCYSTDSSGKERVFGGGTKLTVL
Take B6: the figures for the concentration giving a half-maximal response (EC50) in test [1], in test [2] and in test [3] were 0.9 µg/mL, 2.1 µg/mL and 0.5 µg/mL, respectively.

B7: 202A.1 (antibody, V domains shown)
VH: QVQLVQSGAEVKKPGASVKVSCKASEYTFTGYYLQWVRQAPGHGLEWMGWINPSGGTKYSQKFQGRVTMTRDTSITTVYMELSRLRSDDTAVYYCARDLLRNWGDHDAFDVWGQGTMVTVSS
VL: QSVLTQPPSASETPGQGVTISCSGSSSNIGSNFVCWYQQVPGTAPKLLIYKNNQRPSGVPDRFSGSKSGTSASLAISGLRSEDEADYYCSAWDDSLSGPVFGGGTKLTVL
In the case of B7, the EC50 in test [5] worked out at 4 nM; in test [6], 41 nM.

B8: NORO-123 (antibody, V domains shown)
VH: QVQLVESGGGVVQPGRSLRLSCSTSGFTFSQYPMHWVRQAPGKGLEWVALISYDGMNKYYADSVRGRFTISRDNSENTQYLQMNSLRGDDTAVYYCARVTGDCTGNRCSYWAYYYYGLDVWGQGTLVTVSS
VL: QSALTQPPSASGSPGQSVTISCTGTSSDVGGYKYVSWYQQHPGKAPKLMIYEVTRRPSGVPDRFSGSKSGNTAFLTVSGLQAEDEADYYCGSYAGSTTSGYVFGTGTKVIVL
As for B8, the 50% effective concentration (EC50) in test [1] was 6.1 µg/mL; in test [2], 2.5 µg/mL; in test [3], 0.6 µg/mL.

B9: NORO-256A (antibody, V domains shown)
VH: QVQLVESGGGVVQAGRSLRLSCAASGFTFRSYGMHWVRQAPGKGLEWVAIISYDGGSKYYADSVKGRFTISRDNSKNTLYLQMNSLRVEDTALYYCAKDFLRVYSYGWHSFDIWGLGTLVTVSS
VL: QSVLTQPPSVSAAPGQRVTISCSGSSSNIGTYYVSWYQHLPGTAPKLLIYDNDKRPSGIPDRFSASKSGTSATLDIAGLQTGDEADYYCGTWDLSLTAGWVFGGGTKLTVL
As to B9, the EC50 in test [4] is 0.4 µg/mL; in test [2], over 100 µg/mL; in test [3] it was 0.4 µg/mL.

B10: NORO-303 (antibody, V domains shown)
VH: QVQLVESGGGVVQPGRSLRLSCAASGFIFSSYAMHWVRQAPGKGLEWVAVMSYDGNNKYYADSVKGRFTISRDNSKNTLFLQMNSLRPEDTAVYYCARDCRVGWVFTYGMDVWGQGTLVTVSS
VL: QSALTQPPSASGSPGQSVTISCTGTSSDVGGYNYVSWYQQHPGKAPKLMMYEISKRPSGVPIRFSGSKSGNTASLTVSGLQAEDEADYYCSSYAGTYNCVVFGGGTKLTVL
For the molecule B10, the EC50 was 6.8 µg/mL in test [1] and over 100 µg/mL in test [2].

B11: NORO-313.1 (antibody, V domains shown)
VH: QVQLVESGGGLVKPGGSLRLSCAASGFTFSDFYMSWIRQAPGKGLEWVGYISSIAGATNYADSVKGRFTISRDSSKRSLYLQMNSLRVEDTAVYYCARMGRLELERRPHYYYPLDVWGQGTLVTVSS
VL: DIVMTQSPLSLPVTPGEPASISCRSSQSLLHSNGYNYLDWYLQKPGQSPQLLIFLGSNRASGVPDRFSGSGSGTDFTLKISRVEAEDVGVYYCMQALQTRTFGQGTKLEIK
As for B11, the EC50 in test [1] came to 0.8 µg/mL; in test [2], 2.1 µg/mL; in test [3], 0.1 µg/mL.

B12: NORO-115 (antibody, V domains shown)
VH: QVQLVESGGGLVKPGGSLRLSCTASGITISGYYMSWIRQAPGKGLEWIVYINTSGRTIYYADSVKGRFSVSRDNAKESLYLQMDSLTVDDTGIYYCARDRLPASGSHWFHPWGQGTLVTVSS
VL: DIVMTQSPDSLAVSLGGRATINCKSSQSVLYTSDNKNYLAWYQQQPGQPPKLLISWASTRESGVPDRFSGSGSGTDFTLTISNLQAEDVAVYYCQQYYNSPLAFGGGTKVEIK
As to B12, the EC50 is 0.1 µg/mL in test [1], 2.3 µg/mL in test [2] and 1.1 µg/mL in test [3].

B13: NORO-251A (antibody, V domains shown)
VH: QVQLVESGGGVVQPGRSLRLSCAASGFTFRSYGIHWVRQAPGKGLEWVALISYDGSSKYYADSVKGRFTISRDNSKNTLYLQMNSLRSEDTAVYYCAKVRLTSYSIGWFSFDYWGQGTLVTVSS
VL: QSVLTQPPSVSAAPGQKVTISCSGSSSNIANYYVSWYQQLPGRAPKLLIYDNNKRPSGIPDRISGSKSGTSATLGITGLQTGDEADYYCGTWDTSLSAWVFGGGTKLTVL
In the case of B13, the EC50 in test [4] is 4.1 µg/mL; in test [2], over 100 µg/mL; in test [3] it was 0.3 µg/mL.

B14: NORO-250B (antibody, V domains shown)
VH: QVQLVESGGGLVKPGGSLTLSCAASGFTFSDYYMNWIRQAPGKRLEWVSYISGIMSSTNYADSVKGRFTISRDTAKKSVYLQMNSLRAEDTAVYYCARATSQGATSYYFDSWGQGTLVTVSS
VL: QSVLTQPPSVSGAPGQRVTISCTGSSSNIGADYDVHWYQQLPGAAPRLLIYADINRPSGVPDRFSGSKSGTSASLAITGLQAEDEADYYCQSYDRSVSGSAVFGGGTKVTVL
For the molecule B14, the EC50 in test [1] stood at 0.1 µg/mL; in test [2] it was 17.9 µg/mL; in test [3], 0.1 µg/mL.

B15: 279A (antibody, V domains shown)
VH: QVQLVESGGGVVQPGRSLRLSCAASGFTFTKYGMHWVRQAPGKGLEWVAFIAYDGSVKYYGDSAKGRFAISRDNPKNTVYLQMNSLRAEDTAVYYCAKVEIHYYSNSLLGMDVWGQGTLVTVSS
VL: QSVLTQPPSASGTPGQRVTISCSGGNSNIGISYVYWYQHLPGTAPKLLISKNNLRPSGVPDRFSASKSGTSASLAISGLRSEDEAEYYCATLDINMTWVFGGGTKLTVL
Regarding B15, the EC50 in test [5] was found to be 10 nM; in test [7], 18 nM; in test [6] it was 14 nM; in test [8] it was 70 nM.

B16: NORO-273A (antibody, V domains shown)
VH: QVQLVQSGAEVKKPGASVKISCKASGYDFTSFPMHWVRLGPGQRLEWMGWISAANGNTKYSQKFQDRFTITRDTSASIVHMELSSLRSEDTAVYYCARGGYSSGLYRYSNYYYGMTVWGQGTLVTVSS
VL: DIVMTQTPLSLSVTPGQPASISCKSSESLLHNDRKTYLFWYLQKPGQPPQLLIFQVSNRFSGVPDRFSGSGSGTDFTLRISRVEAEDVGIYYCLQTTQLPLTFGGGTKVEIK
B16 showed an EC50 in test [2] of 5.2 µg/mL.

B17: NORO-329A (antibody, V domains shown)
VH: QVQLVESGGGLVKPGGSLRLSCAASGFTFSDYYMSWIRQAPGKGLEWISYISSSFGSTDYAGSMKGRFTISRDNAKNSLYLQMNSLRAEDTAVYYCARYNYYGSGSFVFDYWGQGTLVTVSS
VL: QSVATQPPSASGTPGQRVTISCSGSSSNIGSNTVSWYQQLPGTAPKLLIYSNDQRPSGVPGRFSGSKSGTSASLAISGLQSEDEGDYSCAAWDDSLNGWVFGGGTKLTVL
B17 registered an EC50 in test [4] of 35.8 µg/mL.
